This is an account of results in US20030119169.

One data set addresses T1, YVADamc.
T1 chain: YVAD

In data set [1] the target is in vitro translated GST control [GST: P08515].
Data set [2] addresses T2, in vitro translated GST-CPP32 precursor, P42574.
T2 chain: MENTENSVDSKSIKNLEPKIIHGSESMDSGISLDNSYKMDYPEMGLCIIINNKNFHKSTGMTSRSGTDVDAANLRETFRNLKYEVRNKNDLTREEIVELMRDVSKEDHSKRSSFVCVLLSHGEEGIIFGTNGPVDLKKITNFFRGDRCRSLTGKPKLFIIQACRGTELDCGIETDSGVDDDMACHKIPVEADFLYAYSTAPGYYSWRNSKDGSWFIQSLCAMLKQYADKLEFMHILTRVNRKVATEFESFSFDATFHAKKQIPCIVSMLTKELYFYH

Data set [3] addresses T3, in vitro translated GST-Mch3α2 precursor.
T3 sequence (P55210 whole entry, looked up): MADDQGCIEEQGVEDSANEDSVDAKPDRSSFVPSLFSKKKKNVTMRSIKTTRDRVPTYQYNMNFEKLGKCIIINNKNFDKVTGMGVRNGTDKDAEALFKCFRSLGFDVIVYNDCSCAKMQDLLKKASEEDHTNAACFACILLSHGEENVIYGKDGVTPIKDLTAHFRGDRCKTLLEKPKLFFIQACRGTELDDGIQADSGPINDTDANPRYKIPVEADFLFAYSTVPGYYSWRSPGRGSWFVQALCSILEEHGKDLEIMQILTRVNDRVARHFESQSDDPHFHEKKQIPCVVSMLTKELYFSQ

Data set [4] addresses T4, tetrapeptide substrate DEVD-AMC.
T4 chain: DEVD

Sequence of in vitro translated GST control [GST: P08515] (P08515 whole entry): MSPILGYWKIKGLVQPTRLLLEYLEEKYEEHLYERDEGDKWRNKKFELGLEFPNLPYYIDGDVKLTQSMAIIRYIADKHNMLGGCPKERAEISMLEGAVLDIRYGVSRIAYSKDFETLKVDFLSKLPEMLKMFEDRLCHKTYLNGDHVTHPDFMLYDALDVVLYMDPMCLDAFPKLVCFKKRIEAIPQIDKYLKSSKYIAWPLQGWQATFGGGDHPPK

B1: CPP32, bacterially expressed recombinant active enzyme (protein)
chain: SGISLDNSYKMDYPEMGLCIIINNKNFHKSTGMTSRSGTDVDAANLRETFRNLKYEVRNKNDLTREEIVELMRDVSKEDHSKRSSFVCVLLSHGEEGIIFGTNGPVDLKKITNFFRGDRCRSLTGKPKLFIIQACRGTELDCGIETDSGVDDDMACHKIPVEADFLYAYSTAPGYYSWRNSKDGSWFIQSLCAMLKQYADKLEFMHILTRVNRKVATEFESFSFDATFHAKKQIPCIVSMLTKELYFYH
Turning to B1, in the data set with YVADamc, the Km (YVADamc, µM) was more than 500 µM and the kcat/Km (YVADamc, mM^-1 s^-1) was 67 M⁻¹ s⁻¹. Also, the “cleavage of 35S-labelled in vitro translated protein, SDS-PAGE and autoradiography” value in data set [1] is reported as “No cleavage was observed when CPP32 was incubated with an in vitro translated GST control”. In addition, the “cleavage of 35S-labelled in vitro translated precursor, SDS-PAGE and autoradiography” value in data set [2] was “CPP32 showed a very weak activity towards its precursor and generated a faint GST-prodomain band of 30 kDa size”. Further, in data set [3], the “cleavage of 35S-labelled in vitro translated precursor, SDS-PAGE and autoradiography” value is given as “incubation of CPP32 with the in vitro translated GST-Mch3α generated a GST-prodomain cleavage product of molecular mass 32 kDa”; the “cleavage of resin-immobilized 35S-labelled precursor, soluble products on gradient SDS gel” value is reported as “CPP32 was observed to efficiently cleave the GST-Mch3α precursor”. Moreover, the kcat/Km (DEVDamc, mM^-1s^-1) in data set [4] was found to be 1600 mM⁻¹ s⁻¹.

B2: Mch3α, bacterially expressed recombinant active enzyme (protein)
chain: AKPDRSSFVPSLFSKKKKNVTMRSIKTTRDRVPTYQYNMNFEKLGKCIIINNKNFDKVTGMGVRNGTDKDAEALFKCFRSLGFDVIVYNDCSCAKMQDLLKKASEEDHTNAACFACILLSHGEENVIYGKDGVTPIKDLTAHFRGDRCKTLLEKPKLFFIQACRGTELDDGIQADSGPINDTDANPRYKIPVEADFLFAYSTVPGYYSWRSPGRGSWFVQALCSILEEHGKDLEIMQILTRVNDRVARHFESQSDDPHFHEKKQIPCVVSMLTKELYFSQ
As to B2, in data set [2], the “cleavage of 35S-labelled in vitro translated precursor, SDS-PAGE and autoradiography” value is given as “No cleavage was observed in the buffer control or the Mch3α reaction”. Also, the “cleavage of 35S-labelled in vitro translated precursor, SDS-PAGE and autoradiography” value in data set [3] is “Mch3α exhibited significantly less activity than CPP32 towards the in vitro translated GST-Mch3α, a similar cleavage product was observed”. Moreover, in data set [4], the Km (DEVDamc, µM) amounted to 51 µM and the kcat/Km (DEVDamc, mM^-1s^-1) came to 11 mM⁻¹ s⁻¹.
